# Experimental data from patent publication US12618081B2, “Brown marmorated and harlequin stink bug pheromone enzyme synthesis and uses thereof” (VIRGINIA TECH INTELLECTUAL PROPERTIES, INC., priority 2019, dated 2026).
# B1: MhTPS1: IDS-type sesquiterpene (sesquipiperitol) synthase of Murgantia histrionica, 385 aa, GenBank MG662378, SEQ ID NO: 1 (protein)
# chain: MVSIAAKSLPKLSGAVFGQFSRRKQLIQRHWLDTRTDQYYDVLRRIVVPECKNIASDVPEYPERIEKLLYYTNPAFSDAWNFTTELIYRTVADESHQTEENITKMYLIRATMDLLFTMSAVLDDISDRSEFRKGKKGWHMICQGGESTALYDGTQMGLFPLYLLKQYFKNDPGYSRLLETVVMTYIKLTIGQTIDVLGQFKKSPSMAEYKRINYYKAGQFVAAGSELAVIHAGITSQDLIDKTVEIFTIAGQIIQTWDDFNDYYSSSEQNGKLSCDFMNAGTTWVSAKAMEVFTPSQAVKFMECYGSDDQSKMKTVQELYDEIDMPKLYTEYVLENYNRCETLIKELPHDRLREACSSYMEWLVVRETPDEDSEHKVALCLNISG
# modifications: Murgantia histrionica “harlequin bug” Terpene Synthase (TPS)
# B2: HhIDS2: bona fide IDS enzyme of Halyomorpha halys making (E,E)-FPP, 403 amino acids, GenBank MG870389 (protein)
# chain: MPFAKLCVQKLSNPLMKLCYPNLNGRLSLSKFSNSLDNSTFKFLSCNPHTICREHNTVAIRPQTITKDDKRDFMAVFPDIVRDLTQQDPGISDLSTLISKLMQYNVSGGKKVRGLTVVYSYRMLAPDHDLTPENIRLAQILGWCVEMLQGFFVVIDDLTDQSVTRRGRPCWYRLPGIGLRASSDALLIQAGTFQLLQQHCKDKEFYVDLVELFLDATRRTTYGQTLDLVSSFPNITHLTMDRYNFITKYKTSYYTFHLPVAIAMYMAGIYNTELHRQAKSVLLEMGHYFQVQDDYLDVFSDEEVSGKKGTDIQEGKCTWLAIIAFQRASPSQREILESCYGSKDPEKIQKVKDIFIEIGLPAVFHAYEEETYNLITRQIQQLSEGLPHELFLTLLHKMYGRKQ
# modifications: HhFPPS
# notes: bona fide IDS enzyme of Halyomorpha halys making (E,E)-FPP, 403 amino acids, GenBank MG870389
# B3: HhIDS1: IDS-type sesquiterpene synthase of Halyomorpha halys, 377 amino acids, main product elemol, GenBank MG917093 (protein)
# chain: MIPKTLGNFTGYVLRIALNKKHVNVRHKLDTDIGKYYQTLNDVVIPECMEFVKDAQGLPQRMKECIGYTTPYCYEGWNFCVELLYKTVADKPHQTEENLKKMRILRVLSDMSHSMHFILDDYADKAEFRQGKKIWASICEGGQEAAIYDTFTVNYLINCMLQRHFRNDPGFTKMCEMFSWVNGNSGIGQVLDILDHKNSDFSDYASWKNKVEYKSRNTMCAFPVLGLLHAGLTCNDLIHKTMDIFGDYGLMFQVWNDFMDFYSVQEESGKGNYDCKNNVKTWATITAMSHFNPAQAKEFRDCYGTNDPAKRSRVRELFDEIDLPRKYLDYLRNIRVTVEKKISELSDARVRDASTSYLEWLHGNGHHDVELEILKAP
# modifications: HhTPS2
# notes: IDS-type sesquiterpene synthase of Halyomorpha halys, 377 amino acids, main product elemol, GenBank MG917093
# What was measured:
# H. halys = details: added to a trap containing the two principle components of the H. halys pheromone; cited from earlier work
# [1] = Kinetic analysis of E. coli expressed MhTPS with [1-3H]-(E,E)-FPP; format: biochemical, Murgantia histrionica; details: (E,E)-FPP as the substrate
# Experimental: (§1) Assays with heterologously expressed protein were performed in assay buffer (see above) in a total volume of 250 μl with partially purified protein, 1 mM DTT, and 50 µM allylic substrate [(E,E)-, (Z,E)- or (Z,Z)-FPP] and incubated at 30° C. for 1 h with a 250 μL hexane overlay. Assays were stopped on ice and compounds extracted by mixing (vortex) at maximum speed for . . . 15 sec. Phases were separated by centrifugation at 4000×g for 10 min and the hexane phase was removed and dried over MgSO4 One μl of liquid sample was injected in splitless mode and analyzed by GC-MS. For identification of the MhTPS product, assays were scaled up by incubating 1 mL protein in a 7 mL screw top test tube and the obtained hexane extract was used for further analysis. To determine enzyme kinetic parameters, assays were performed in a final volume of 50 μL with 0.3 μg partially purified, E. coli expressed MhTPS enzyme and increasing concentrations of [1-3H]-(E,E)-FPP (64 uCi mmol-1). Assays were incubated in triplicate at 30° C. for 5 min prior to extraction of the reaction product with 250 μl hexane. Quantification of the radioactive product were as described by Tholl et al. (Tholl et al., 2005). Calculation of Km and Vmax values was performed by rectangular hyperbolic regression analysis using the Hyperbolic Regression Analysis (HYPER 1.01) software (J. S. Easterby, University of Liverpool).
# [2] = TPS activity assay of recombinant M. histrionica IDS-like proteins, GC-MS of hexane extracts; format: biochemical, Murgantia histrionica
# Experimental: as §1
# (§2) GC-MS analysis was performed by liquid injection at 240° C. running in split 5 mode and separated on a GC-2010 gas chromatograph (Shimadzu, Kyoto, Japan) using a 30 m×0.25 mm i.d.×0.25 μm film Zebron ZB-XLB column coupled with a QP2010S mass spectrometer (Shimadzu). The GC program was as follows: 40° C. with 2 min hold, then raised to 220° C. at 5° C./min, then raised to 240° C. at 70° C./min followed by a 2 min hold time. Mass spectrometry was performed with an ion source temperature of 240° C., interface temperature of 280° C., electron ionization (EI) potential of 70 eV and scan range of 50 to 400 atomic mass units. Helium was used as a carrier gas at 1.9 mL/min. Terpene olefin products were identified by comparison of retention times and mass spectra with those of authentic standards.
# [3] = IDS (prenyltransferase) activity assay of recombinant M. histrionica proteins, LC-MS/MS; format: biochemical, Murgantia histrionica; details: IPP and DMAPP as substrates
# Experimental: (§3) For enzyme assays, 96 μl of partially purified protein were mixed with 2 μl 50 μM isopentenyl diphosphate (IPP; Sigma) and 2 μl 50 μM dimethylallyl diphosphate (DMAPP; Sigma) and incubated at 30° C. for 2 h. Analysis of IDS enzyme products was done using an Agilent 1260 HPLC system (Agilent Technologies) coupled to an API 5000 triple-quadrupole mass spectrometer (AB Sciex Instruments) according to the protocol described by Beran et al. (Beran et al., 2016).
# [4] = TPS activity assay of recombinant H. halys IDS-like proteins, GC-MS; format: biochemical, Halyomorpha halys
# Experimental: Assays with heterologously expressed protein were performed in assay buffer (see above) in a total volume of 100 μl with partially purified protein, 1 mM DTT, and 50 μM allylic substrate [(E,E)-, (Z,E)- or (Z,Z)-FPP] and incubated at 30° C. for 1 h with a 100 μL hexane overlay. Assays were stopped on ice and compounds extracted by mixing (vortex) at maximum speed for 15 sec. Phases were separated by centrifugation at 4000×g for 10 min and the hexane phase was removed and dried over MgSO4. One μl of liquid sample was injected in splitless mode and analyzed by GC-MS.
# as §2
# [5] = IDS activity assay of recombinant H. halys HhIDS2, LC-MS; format: biochemical, Halyomorpha halys; details: IPP and DMAPP
# Experimental: as §3, with “μl […] dimethylallyl diphosphate” for “μl 50 μM dimethylallyl diphosphate”, “et al. (2016).” for “et al. (Beran et al., 2016).”
molecule,measurement,setting,value
"CCC\C=C/C=C/C=C/C(=O)OC [MDT, methyl (E,E,Z)-2,4,6-decatrienoate]",increase in captured bugs,H. halys,70%
B1,Vmax,[1],675.3±53.7 pkat/mg
same,kcat,[1],0.03 ± 0.003 s⁻¹
same,Km,[1]; read-out: apparent Km,4 ± 0.7 µM
same,"sesquiterpene synthase activity, product","[2]; (E,E)-FPP as a substrate, N-terminal His-tag, E. coli",a terpene alcohol as its main product
same,pH of highest activity,"[2]; (E,E)-FPP as substrate",7
same,sesquipiperitol production,"[2]; (Z,E)-FPP as substrate",at lower levels
same,enzymatic activity,"[2]; (Z,Z)-FPP as the substrate",almost no enzymatic activity
same,"conversion of GPP, products",[2]; GPP as substrate,several monoterpene olefins
same,increase of activity (relative amount of sesquipiperitol),"[2]; between 0.1 and 10 mM Mg^2+, (E,E)-FPP as substrate",approximately 2 fold
same,formation of terpene products,[2]; incubated with IPP and DMAPP,no formation of terpene products
same,IDS activity: formation of FPP,[3],not observed
B2,terpene product formation,[4]; FPP isomers as substrate,did not produce a terpene product
same,IDS activity: product,[5],"only (E,E)-FPP"
B3,sesquiterpene products,"[4]; either (E,E)-FPP or (Z,E)-FPP as substrates",several sesquiterpene olefins and alcohols at low abundance
